Assay: soluble on expression in E. coli; label from the status in PepcDB or PDB records

Row | Sequence | soluble on expression in E. coli
1 | MNQVEMTEFPVGKPQEALYGVASTPDGALWFTLAKGNAIGRLSPDGAVSRFPLPHTDGQPTTITCGPDGRPWFTLSSANAIGRLAPDGALRMFELPRPASRPFGIAGGHDGCLWFAEMAGDRIGRITIDGDIEEYDLPVKGGYPSCMAAGRDGLMWFTLNQAGAVGSISATAAPRIFPLGAADAAPVGIASDAQGALWIAQAGNGAIVRFDAGGRITEFPLHSRAARPHAIAADAAGNLWFTEWGANRIGRISEAGDLAGYELAAPGSEPHGIAIDPHGCVWAALETGRLVRLQASPRDLEHHHHHH | soluble
2 | MGSDKIHHHHHHMTTLGVVYDKFLSPYFAGGGAVHAYEVTIRLKEHFKIVYYPSSPVLSWDKENVEKKAKELESQGIKVADEFYEILEEKRRIGRLKRFLFADKIAREFSKGFKVDADILYEPDHTSLDIFYLARDTKYGVTFHEPPFYNNSLRYFRRLVKFYGVNPYTGKGFHTRFLYNEYIKYLYKRLFKKVKKPTFLAGVSEAPLLESGLGGEVIKPGNAFNPSLLKFRNRGKEDYVVFWSRLNQDKGFHELPDILRIMEKRGGNKVRLILMGKFFDKYNERRFWSKVRKYDLRVDYKGFVKREELADIVSKAKVLIYPSHVDGFSLVALESLALGTPVVAYDIPAIKSVYGGLECVRIVNEFDKESMAENALKFYKMSEKEIEEIMNGDKLMEFLKLHSNWDNVANSVLKILKKYLI | not soluble
3 | MGHHHHHHSHMKNYKAIGKIGEGTFSEVMKMQSLRDGNYYACKQMKQRFESIEQVNNLREIQALRRLNPHPNILMLHEVVFDRKSGSLALICELMDMNIYELIRGRRYPLSEKKIMHYMYQLCKSLDHIHRNGIFHRDVKPENILIKQDVLKLGDFGSCRSVYSKQPYTEYISTRWYRAPECLLTDGFYTYKMDLWSAGCVFYEIASLQPLFPGVNELDQISKIHDVIGTPAQKILTKFKQSRAMNFDFPFKKGSGIPLLTTNLSPQCLSLLHAMVAYDPDERIAAHQALQHPYFQEQRKTEKRAL | not soluble
4 | GSMTEADVNPKAYPLADAHLTKKLLDLVQQSCNYKQLRKGANEATKTLNRGISEFIVMAADAEPLEIILHLPLLCEDKNVPYVFVRSKQALGRACGVSRPVIACSVTIKEGSQLKQQIQSIQQSIERLLV | soluble
5 | MGSDKIHHHHHHMNTLANWKKFLLVAVIICFLVPIMTKAEIAEADTSSELIVSEAKNLLGYQYKYGGETPKEGFDPSGLIQYVFSKADIHLPRSVNDQYKIGTAVKPENLKPGDILFFKKEGSTGTVPTHDALYIGDGQMVHSTQSKGVIITNYKKSSYWSGTYIGARRIAADPATADVPVVQEAEKYIGVPYVFGGSTPSEGFDCSGLVQYVFQQALGIYLPRSAEQQWAVGEKVAPQNIKPGDVVYFSNTYKTGISHAGIYAGAGRFIQASRSEKVTISYLSEDYWKSKMTGIRRFDNLTIPKENPIVSEATLYVGEVPYKQGGVTPETGFDTAGFVQYVYQKAAGISLPRYATSQYNAGTKIEKADLKPGDIVFFQSTSLNPSIYIGNGQVVHVTLSNGVTITNMNTSTYWKDKYAGSIRVQ | not soluble
6 | MHGTCLSGLYPEPFTHNSHDYPHFNIYISFGGPKYCITALNTYVIPLLHHILTTQFIHTYFNIPTKSPPKSPKHKNYLSFNFTK | soluble
7 | MSLTLTIEEIAKTKKLLVVSDFDGTIAGFSKDAYNVPINQKSLKAVKDLSQQADTDVVILSGRHLEGLKTVLDLGQYDITMVGSHGSEDSSRPRTLTPEEVARLAKIEADLEKIVDGIEGAFVEIKPFHRVLHFIRVSDKDKVQGILAQAAHVDSSGLKVTNGKSIIEYSISSTTKGTWLKEYVDRTEPTGVIFLGDDTTDEHGFKALENDDRALTVKVGEGDTAAKTRVDDVDNVGIFLEKLAYHRMQYAESVRLGEGHHHHHH | soluble
8 | MGGSHHHHHHGMASALAAVDIRDNLLGISWVDSSWIPILNSGSVLDYFSERSNPFYDRTCNNEVVKMQRLTLEHLNQMVGIEYILLHAQEPILFIIRKQQRQSPAQVIPLADYYIIAGVIYQAPDLGSVINSRVLTAVHGIQSAFDEAMSYCRYHPSKGYWWHFKDHEEQDKVRPKAKRKEEPSSIFQRQRVDALLLDLRQKFPPKFVQLKPGEKPVPVDQTKKEAEPIPETVKPEEKETTKNVQQTVSAKGPPEKRMRLQ | not soluble
9 | MGSDKIHHHHHHMTQTSSLVINSFREITVNHPLWSHEFLIRCRAGNLFLPDVQILAVQMYKFSKEFNRILASILSCCEDESSQLVILENLFDEMGQGDITQSHPELFRQFTRALGIDDETLAALPTAPETRALIETYLQIPHKYGYLAALGAVCYASEGIVSSLYTQLYKGIIGATPLPKEALIFFEVHIDVDDSHAAKLAAVIEPRIPMNEEDIKVKLAIVEAMDARVQFFNGIQRQISKYSLYPDSWVHFDALL | not soluble
10 | MTVPTYDKFIEPVLRYLATKPEGAAARDVHEAAADALGLDDSQRAKVITSGQLVYKNRAGWAHDRLKRAGLSQSLSRGKWCLTPAGFDWVASHPQPMTEQETNHLAFAFVNVKLKSRPDAVDLDPKADSPDHEELAKSSPDDRLDQALKELRDAVADEVLENLLQVSPSRFEVIVLDVLHRLGYGGHRDDLQRVGGTGDGGIDGVISLDKLGLEKVYVQAKRWQNTVGRPELQAFYGALAGQKAKRGVFITTSGFTSQARDFAQSVEGMVLVDGERLVHLMIENEVGVSSRLLKVPKLDMDYFE | soluble
11 | MATYNGQGFIHDQLDSIRNQTLRPDYVLMRDDGSTDDTVKVVEDYIKEHRLDGWSITSNDKNLGWRLNFRQLLIDVLAYEVDYVFFSDQDDTWYHHKNKMQVDIMEERQDINLLSADIDIKKLSEEATIPNNFKFNGEETISKYPLDFSYHNYRQGWTFCLRKSFVDQVMTFYSDNLILSHDNLFAGVSGVIGSGYNLNRSVGEHKRHAENASGNILNMSSSYERHLQELYFVLSYYIILVPFLEKSSSSQLREAKAYLDFNQQRYKNAQNKDFVAILKQMMTKKRFYDSFSNRIRDLVFLLKDIKRSLEHHHHHH | soluble
12 | HHHHHHMASSAQDGNNPLFSPYKMGKFNLSHRVVLAPMTRCRALNNIPQAALGEYYEQRATAGGFLITEGTMISPTSAGFPHVPGIFTKEQVREWKKIVDVVHAKGAVIFCQLWHVGRASHEVYQPAGAAPISSTEKPISNRWRILMPDGTHGIYPKPRAIGTYEISQVVEDYRRSALNAIEAGFDGIEIHGAHGYLIDQFLKDGINDRTDEYGGSLANRCKFITQVVQAVVSAIGADRVGVRVSPAIDHLDAMDSNPLSLGLAVVERLNKIQLHSGSKLAYLHVTQPRYVAYGQTEAGRLGSEEEEARLMRTLRNAYQGTFICSGGYTRELGIEAVAQGDADLVSYGRLFISNPDLVMRIKLNAPLNKFNRKTFYTQDPVVGYTDYPFLQGNGSNGPLSRL | soluble
13 | MGSDKIHHHHHHMSVVIGYYGKNGAVIAGDKRNLLFNGIESNRAKLEEVLYSGEIKNDEELFKKASEFEVTVHINDTREKVKSLGNLLSGEVVSIGKDSKRRRMYLTKEKCAIIDIENDQITNKSVKTGSGIVVFGNRYVKHFVESEIKKHVQKLLKMSAREIRDLFEKILKNIENATLSDTFEYYVVEAGEPEFEKAVNKDLDDLFNYRHDLSIKMAEMQILTMIAEKIVKIGDVGVIKNGTLVLYDEFLAINKICPEPEIYSEIEITGEFIEGDIITIDNESLKVKRTGSPVAVQKIICKK | not soluble
14 | MGDYDYLIKFLALGDSGVGKTSFLHRYTDNTFTGQFISTVGIDFKEKKVVYKSSRGGFGGRGQRVLLQLWDTAGQERFRSLTTAFFRDAMGFILIFDITNEQSFLNIRDWLSQLKVHAYCEQPDIIICGNKADLENRRQVSTARAKQLADQLGLPYFETSACTSTNVEKSVDCLLDLVMQRIQQSVETSSLPLSECRGVSLDGDPSAASSYCANC | not soluble
15 | ELALWSPEVKIVELVKDCKGLGFSILDYQDPLDPTRSVIVIRSLVADGVAERSGGLLPGDRLVSVNEYCLDNTSLAEAVEILKAVPPGLVHLGIC | soluble
16 | MGSDKIHHHHHHMTEGWDALDAELEQWAAAGLRLPLWWRDDDAVTPTDALTRLEAMATRLDLPVHLAVIPKAAEDALAQHVSQSSHLIPVVHGWAHVNHANPDKKTCEFPSTRPVDEALTDAEQGVERLKHLFGARLQPMFVPPWNRISPAMLPWLAGLGFAAISTYGPRKRTQAASGLVQINTHIDPIDWKGGRGLMPEAQILQKLVANLQARRSGQQDNAEPLGLLTHHLVHTDEVWEFCDTLLRRLLEGPAHPWRFNERIN | not soluble
